Among the data in PMC8226212, “LaPT2 Gene Encodes a Flavonoid Prenyltransferase in White Lupin” (Frontiers in Plant Science, 2021) are Km values, retold here.

Assay in all cases: HPLC product assay, yeast microsomes, Eadie-Hofstee plot
Holding throughout (format): biochemical, Lupinus albus

Substrate in data set [1]: O=c1c(O)c(-c2ccc(O)c(O)c2)oc2cc(O)ccc12
The note with it: co-substrate DMAPP, 10 mM Mg2+, MOPS pH 7.0, 30°C.

Substrate in data set [2]: COc1ccc(-c2oc3cc(O)cc(O)c3c(=O)c2O)cc1
The note with it: co-substrate DMAPP, 10 mM Mg2+, MOPS pH 7.0, 30°C.

Substrate in data set [3]: O=c1c(O)c(-c2ccccc2)oc2cc(O)cc(O)c12
The note with it: co-substrate DMAPP, 10 mM Mg2+, MOPS pH 7.0, 30°C.

Substrate in data set [4]: O=c1c(O)c(-c2ccc(O)cc2)oc2cc(O)cc(O)c12
The note with it: co-substrate DMAPP, 10 mM Mg2+, MOPS pH 7.0, 30°C.

Substrate in data set [5]: CC(C)=CCOP(=O)(O)OP(=O)(O)O
The note with it: co-substrate 400 μM kaempferol, 10 mM Mg2+, MOPS pH 7.0, 30°C.

Substrate in data set [6]: O=C1c2c(O)cc(O)cc2O[C@H](c2ccc(O)cc2)[C@H]1O
The note with it: co-substrate DMAPP, 10 mM Mg2+, MOPS pH 7.0, 30°C.

Substrate in data set [7]: O=c1c(O)c(-c2ccc(O)c(O)c2)oc2cc(O)cc(O)c12
The note with it: co-substrate DMAPP, 10 mM Mg2+, MOPS pH 7.0, 30°C.

Substrate in data set [8]: O=c1c(O)c(-c2ccc(O)cc2O)oc2cc(O)cc(O)c12
The note with it: co-substrate DMAPP, 10 mM Mg2+, MOPS pH 7.0, 30°C.

B1: LaPT2 (Lupinus albus) (protein)
chain: MGFVLAATSFPKAPSFTSGRSSWNSKEYTKNYYASSHVTTLWHKTGIIQKEPCFMMAWPQNLKLHCKVKGGDKRNYVMNAASGKSNEYETQDLDQRNNWGTLINALHVFFKFIRPTATLSLLLGATLTTLIAVEKLSDISAAYFIGLLQVMVVSSCMQVFMAGLNQLYDVEIDKINKPYLPLVSGELPFKNGVIIVATTFILGHLFPLIIGSGPLFWSFVFSSSLAIAYCADLPLLRWKRHSALTALNYIIDLGGVKPLGYVLHMQTYVFKRPPTFSRPLIFCMAMSSVFAIIIAIFKDITDMEGDEKFGIKSLSLHLGKKPVFWICVSLLQMAYVVAILMGTLSPFLWVKIAMGLGHGILASLVSYYANSVDLKSNPAIQSFYMFIWKLLTVEYFLIPLFR
notes: open reading frame in pDR196GW, yeast W303A1 microsomal fraction; contig deduced as 407 aa (GFP construct named 88-403); predicted 87-aa transit peptide, no truncation stated for the assay
Turning to B1, the Km (commonly the concentration of substrate that gives half-maximal velocity) in data set [1] was 10.02 ± 3.19 µM; in data set [2] it was 115.19 ± 34.25 µM; in data set [3] it was 20.66 ± 2.91 µM; in data set [4] it was 74.07 ± 3.78 µM; in data set [5] it was 66.11 ± 7.54 µM; in data set [6], 20.08 ± 4.44 µM. Further, the Km in data set [7] amounted to 102.81 ± 6.41 µM; in data set [8] it was 20.85 ± 3.79 µM.
